The supplement of paper PMC10567573
± gives the standard deviation.

Experiment: protein stability index of a GFP-peptide fusion (GPS, HEK-293T) (PSI 1-6); higher = more stable
[1] = treatment: DMSO, c terminus: native
[2] = treatment: MLN4924 1 uM, 8 h, c terminus: native
[3] = treatment: DMSO, c terminus: a fixed tail appended
[4] = treatment: MLN4924 1 uM, 8 h, c terminus: a fixed tail appended
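Further: 24-mer peptide tiles fused after GFP, lentivirally expressed, FACS-sorted into six equal bins by GFP/DsRed ratio, decoded by Illumina sequencing, PSI is the read-weighted mean bin number.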

Row | Sequence | protein stability index [1] | protein stability index [2] | protein stability index [3] | protein stability index [4]
1 | VLICVIVFIIILFIVLFATGAFS [VAMP8] | 4.42 ± 0.23 | 4.34 ± 0.15 |  | 
2 | VLRAGDREDITEPAICALRHLTSR [CTNNB1] |  |  | 3.39 ± 0.39 | 3.67 ± 0.18
3 | VLSCEAATQTERRLDLAAVTLRRG [FAM189A2] |  |  | 4.25 ± 0.19 | 4.28 ± 0.34
4 | VLVHVQKWDGKSTTIKRKREDDKL [FABP4] |  |  | 2.85 ± 0.46 | 2.85 ± 0.4
5 | VLVLIFNAAKTCPTMPALFSDHTF [INTS4] |  |  | 3.16 ± 0.42 | 3.16 ± 0.48
6 | VMDYLPISSTSTKRTYWPDLDAKI [PLD5] |  |  | 2.77 ± 0.19 | 2.85 ± 0.1
7 | VMSGVKCSGTELSLAHCRHDGEDV [LOXL2] |  |  | 4.95 ± 0.21 | 4.89 ± 0.24
8 | VNKYYPPDFNPEKHGSLNRYHNSH [YJU2B] |  |  | 3.41 ± 0.21 | 3.21 ± 0.39
9 | VNYSDPNDADKAINTLNGLKLQTK [ELAVL3] |  |  | 4.66 ± 0.2 | 4.62 ± 0.12
10 | VPVQPLLPESLARSLLPSTEYQKQ [FBF1] |  |  | 4.18 ± 0.18 | 4.58 ± 0.28
11 | VQTWTQPRLCYLVKEGGSYGFSLK [PDZK1] |  |  | 2.13 ± 0.24 | 2 ± 0.33
12 | VQVSPEFKDSAGKSPTGLKLKNDT [ZNF75A] |  |  | 4.96 ± 0.23 | 4.91 ± 0.15
13 | VRTLSEPPDKGEEQVNFCESSNDF [ZBTB22] |  |  | 5.14 ± 0.25 | 5.26 ± 0.39
14 | VRVLESLLVSLVTTVVVFVASMVL [CLCN6] |  |  | 3.13 ± 0.4 | 3.3 ± 0.34
15 | VSQAVEGPEELSRSSSESKLPSSG [RIPK4] |  |  | 5.21 ± 0.62 | 5.06 ± 0.58
16 | VSRRAAAAAATVLLRTARVRRECW [SLC19A2] |  |  | 2.58 ± 0.17 | 2.99 ± 0.36
17 | VSSAVSPSIIPQEDPSQQFLQQSL [INTS4] |  |  | 4.2 ± 0.24 | 4.41 ± 0.083
18 | VTGREGFPTDAPYPTTLGKDRECQ [ZNF8] |  |  | 4.74 ± 0.13 | 4.8 ± 0.32
19 | VTGYGINGTGDSNDFWRIEVVNRK [POMT2] |  |  | 3.29 ± 0.21 | 3.39 ± 0.17

Row | Sequence | protein stability index [1] | protein stability index [2] | protein stability index [3] | protein stability index [4]
20 | VVCGMFGFPGERTYNTKVYKMFAS [LOXL2] |  |  | 2.66 ± 1.1 | 2.63 ± 0.2
21 | VVLKLFLSFSGSDVQNKLKESAQC [SNX8] |  |  | 2.8 ± 0.76 | 2.92 ± 0.52
22 | VVTLWYRAPEVLLQSTYATPVDMW [CDK4] |  |  | 3.15 ± 0.61 | 3.07 ± 0.68
23 | WEAKQEKIKSEEIEITFSYWDGSG [FAM50A] |  |  | 2.59 ± 0.3 | 2.6 ± 0.35
24 | WGEMTLSLFSLLIAAAVYIMDTVG [SLC19A2] |  |  | 2.51 ± 0.44 | 2.46 ± 0.31
25 | WGHCEIRMRYLNGLDPEPLPLMDL [SPSB1] |  |  | 2.42 ± 0.59 | 2.36 ± 0.59
26 | WVCFIYTIMSLASLLFVVMFIPET [SLC2A12] |  |  | 3.06 ± 0.83 | 2.74 ± 0.52
27 | WVLSIDGENAGSLTHIEAQNKIRA [PDLIM7] |  |  | 3.02 ± 0.33 | 3.28 ± 0.29
28 | WVNDPQRMDKRTLALLVLAHSSDV [GOLPH3L] |  |  | 2.19 ± 0.3 | 2.18 ± 0.2
29 | WVSTQLQATCNVHKSAFNDWFSGH [FADS1] |  |  | 2.75 ± 0.82 | 2.43 ± 0.54
30 | WWALSTCGYFQVVNYTQGLWEKVM [SLC19A2] |  |  | 2.75 ± 1.3 | 2.45 ± 0.73
31 | YDIAKHLTYENVERWLKELRDHAD [RAB11A] |  |  | 2.66 ± 0.36 | 2.77 ± 0.23
32 | YEHYERVENGDFNWIVPGKFLAFS [CDC14A] |  |  | 2.34 ± 0.16 | 2.26 ± 0.29
33 | YESTLFEDQVPALEAPEDIGSTSE [MIA2] |  |  | 5.55 ± 0.23 | 5.51 ± 0.33
34 | YGETDFHKQDGKAGLFSQEQYERN [TMEM40] |  |  | 4.18 ± 0.16 | 4.72 ± 0.56
35 | YGRDSFVRLLLEFKAEVDPLSDKG [ASB7] |  |  | 2.65 ± 0.74 | 2.37 ± 0.28
36 | YKGPLLEEQALTKAAEGGLSSPEF [FAM98B] |  |  | 4.41 ± 0.33 | 4.55 ± 0.27
37 | YKYGAIRDIDLKNRRGGPPFAFVE [SRSF1] |  |  | 2.38 ± 0.31 | 2.62 ± 0.36
38 | YLIMLPFRFTYYTILDIFRFALRF [FAF2] |  |  | 3.33 ± 0.26 | 3.25 ± 0.18

Row | Sequence | protein stability index [1] | protein stability index [2] | protein stability index [3] | protein stability index [4]
39 | YLNEYEAEKIEYNESMKAYHNSPA [SMARCE1] |  |  | 3.95 ± 0.4 | 3.98 ± 0.31
40 | YLRFIVSRMKERAIDLNKKGKDNK [ZMYND11] |  |  | 2.63 ± 0.7 | 2.05 ± 0.3
41 | YLYGILEERKNEMTQVITRTQEEK [TRIM55] |  |  | 3.6 ± 0.15 | 3.55 ± 0.31
42 | YNHQHKYFFLIGPPALLPLYFQWY [FADS1] |  |  | 3.18 ± 0.66 | 2.38 ± 0.32
43 | YNISEFTRRHPGGSRVISHYAGQD [FADS1] |  |  | 3.54 ± 0.15 | 3.42 ± 0.26
44 | YQAFRECTLETTVHASGWNKILVP [BCL2L13] |  |  | 1.93 ± 0.33 | 2.32 ± 0.22
45 | YQGPGTRRLQEVLGVQTGGPGGRR [DYRK1B] |  |  | 3.59 ± 0.39 | 3.94 ± 0.36
46 | YRAALRSCSLVLEHQPDNIKALFR [FKBP8] |  |  | 2.17 ± 0.25 | 2.27 ± 0.037
47 | YRDYGHSRRDESYSRGYRNRRSSR [RBMY1A1] |  |  | 4.75 ± 0.14 | 4.79 ± 0.12
48 | YRGAVYADSGNFKRCINLWKYALD [FEM1C] |  |  | 2.32 ± 0.08 | 2.33 ± 0.18
49 | YRQSSFPHCSDLMPSGSEEKILRE [KCNA4] |  |  | 4.25 ± 0.29 | 4.26 ± 0.14
50 | YRSLGSVQAPSYGARPVSSAASVY [KRT18] |  |  | 3.33 ± 0.23 | 3.17 ± 0.097
51 | YSAYIRRCACAASSDESPGSKCSP [TTC32] |  |  | 2.25 ± 0.23 | 2.85 ± 0.16
52 | YSFRNPDVQSAIWRMLTGRRSLA [OR3A1] | 2.44 ± 0.51 | 2.65 ± 0.36 |  | 
53 | YSGQITLLKLEQNTCSVITTLKGH [WDFY1] |  |  | 2.82 ± 0.67 | 2.38 ± 0.36
54 | YSNLLVRDFRPTDQEEIKTLERYM [TENT5C] |  |  | 3.08 ± 0.22 | 3.35 ± 0.36
55 | YSRYLNEKAFSYRQMAFDFARVKK [SNAP91] |  |  | 2.28 ± 0.59 | 2.7 ± 0.16
56 | YTEGISQRMRVPEKLKVAPPNADL [MFF] |  |  | 3.28 ± 0.4 | 3.75 ± 0.32
57 | YVHDPECVATTGDITVSVSTSFLP [FBXO3] |  |  | 2.46 ± 0.26 | 2.95 ± 0.15
